Data reported in patent US20120225049.

Legend:
[1] = test system: Native guinea pig VAMP8 in isolated pancreatic zymogen granules
[2] = test system: Native guinea pig VAMP2 in isolated pancreatic zymogen granules
[3] = biological target: Recombinant wild type rat SNAP25 full length 1-206 (UniProt P60881)
[4] = biological target: T1, Recombinant human VAMP8 (endobrevin) cytoplasmic portion 1-74 (UniProt Q9BV40)
T1 sequence: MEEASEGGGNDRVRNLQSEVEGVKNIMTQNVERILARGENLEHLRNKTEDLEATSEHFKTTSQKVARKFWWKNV

[5] = biological target: K85A-R86S-K87A mutant rat VAMP2 cytoplasmic portion 1-96 (UniProt P63045)
K85A-R86S-K87A mutant rat VAMP2 cytoplasmic portion 1-96, sequence (P63045 1-96 K85A/R86S/K87A): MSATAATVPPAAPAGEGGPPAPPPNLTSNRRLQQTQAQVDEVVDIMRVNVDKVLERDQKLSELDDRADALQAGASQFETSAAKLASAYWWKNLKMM

[6] = biological target: Assembled ternary SNARE complex (syntaxin1A 1-263 : SNAP25 : VAMP2 1-96) (UniProt P32851)
Assembled ternary SNARE complex (syntaxin1A 1-263 : SNAP25 : VAMP2 1-96), sequence (P32851 whole entry, looked up, tested part not stated, one chain of several): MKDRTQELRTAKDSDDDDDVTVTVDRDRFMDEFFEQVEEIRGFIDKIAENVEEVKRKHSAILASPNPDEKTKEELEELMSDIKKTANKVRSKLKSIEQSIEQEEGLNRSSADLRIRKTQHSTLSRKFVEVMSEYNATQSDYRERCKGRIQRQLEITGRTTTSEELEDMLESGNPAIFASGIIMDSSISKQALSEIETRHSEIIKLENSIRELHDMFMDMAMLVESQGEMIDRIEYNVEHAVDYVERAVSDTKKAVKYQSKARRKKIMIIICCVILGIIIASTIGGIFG

Recombinant wild type rat SNAP25 full length 1-206, sequence (P60881 whole entry, looked up, tested part not stated): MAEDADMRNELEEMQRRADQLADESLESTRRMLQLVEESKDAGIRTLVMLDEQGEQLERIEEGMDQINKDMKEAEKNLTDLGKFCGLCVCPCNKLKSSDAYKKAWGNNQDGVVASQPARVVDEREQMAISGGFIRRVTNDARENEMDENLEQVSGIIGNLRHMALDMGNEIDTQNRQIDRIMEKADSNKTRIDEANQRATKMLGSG

With “Fraction ν of Tityus serrulatus venom (Fx ν metalloprotease)” the “proteolytic cleavage (Western blot of isolated zymogen granules)” value [1] was “VAMP8 is also a proteolytic target in ZG during incubation with Fx ν”, the “proteolytic cleavage (Western blot of isolated zymogen granules)” value [2] was “whole TSV or Fx ν rapidly cleave VAMP2 (upper panel) even in short incubation periods (5 and 30 min)” and the “proteolytic cleavage (transblot)” value [3] was “is a t-SNARE that is also cleaved by Fx ν”. For the same substance, the “proteolytic cleavage (transblot, mass spectrometry)” value [4] was “is cleaved upon exposure to Fx ν”, the “proteolytic cleavage (PAGE, reverse phase chromatography, sequencing)” value [5] was “these substitutions prevented the previously observed cleavage” and the “proteolytic cleavage (PAGE staining density, 60 min)” value [6] was “a clear change in staining density indicating the occurrence of cleavage by Fx ν of both the assembled complex (not boiled, lane 3) and the unassembled SNARE complex proteins (boiled, lane 4)”.
